# Test results published in patent US10113152B1, “Variant polypeptides capable of aminating aliphatic alpha keto acids” (AbbVie Inc., priority 2014, dated 2018).
# B1: L42V: variant B. cereus leucine dehydrogenase, leucine at position 42 substituted by valine, SEQ ID NO:5 (protein)
# chain: MTLEIFEYLEKYDYEQVVFCQDKESGLKAIIAIHDTTLGPAVGGTRMWTYDSEEAAIEDALRLAKGMTYKNAAAGLNLGGAKTVIIGDPRKDKSEAMFRALGRYIQGLNGRYITAEDVGTTVDDMDIIHEETDFVTGISPSFGSSGNPSPVTAYGVYRGMKAAAKEAFGTDNLEGKVIAVQGVGNVAYHLCKHLHAEGAKLIVTDINKEAVQRAVEEFGASAVEPNEIYGVECDIYAPCALGATVNDETIPQLKAKVIAGSANNQLKEDRHGDIIHEMGIVYAPDYVINAGGVINVADELYGYNRERALKRVESIYDTIAKVIEISKRDGIATYVAADRLAEERIASLKNSRSTYLRNGHDIISRR
# B2: L42G: variant B. cereus leucine dehydrogenase, leucine at position 42 substituted by glycine, SEQ ID NO:6 (protein)
# chain: MTLEIFEYLEKYDYEQVVFCQDKESGLKAIIAIHDTTLGPAGGGTRMWTYDSEEAAIEDALRLAKGMTYKNAAAGLNLGGAKTVIIGDPRKDKSEAMFRALGRYIQGLNGRYITAEDVGTTVDDMDIIHEETDFVTGISPSFGSSGNPSPVTAYGVYRGMKAAAKEAFGTDNLEGKVIAVQGVGNVAYHLCKHLHAEGAKLIVTDINKEAVQRAVEEFGASAVEPNEIYGVECDIYAPCALGATVNDETIPQLKAKVIAGSANNQLKEDRHGDIIHEMGIVYAPDYVINAGGVINVADELYGYNRERALKRVESIYDTIAKVIEISKRDGIATYVAADRLAEERIASLKNSRSTYLRNGHDIISRR
# B3: L42I: variant B. cereus leucine dehydrogenase, leucine at position 42 substituted by isoleucine, SEQ ID NO:4 (protein)
# chain: MTLEIFEYLEKYDYEQVVFCQDKESGLKAIIAIHDTTLGPAIGGTRMWTYDSEEAAIEDALRLAKGMTYKNAAAGLNLGGAKTVIIGDPRKDKSEAMFRALGRYIQGLNGRYITAEDVGTTVDDMDIIHEETDFVTGISPSFGSSGNPSPVTAYGVYRGMKAAAKEAFGTDNLEGKVIAVQGVGNVAYHLCKHLHAEGAKLIVTDINKEAVQRAVEEFGASAVEPNEIYGVECDIYAPCALGATVNDETIPQLKAKVIAGSANNQLKEDRHGDIIHEMGIVYAPDYVINAGGVINVADELYGYNRERALKRVESIYDTIAKVIEISKRDGIATYVAADRLAEERIASLKNSRSTYLRNGHDIISRR
# B4: L42A: variant B. cereus leucine dehydrogenase, leucine at position 42 substituted by alanine, SEQ ID NO:20 (protein)
# chain: MTLEIFEYLEKYDYEQVVFCQDKESGLKAIIAIHDTTLGPAAGGTRMWTYDSEEAAIEDALRLAKGMTYKNAAAGLNLGGAKTVIIGDPRKDKSEAMFRALGRYIQGLNGRYITAEDVGTTVDDMDIIHEETDFVTGISPSFGSSGNPSPVTAYGVYRGMKAAAKEAFGTDNLEGKVIAVQGVGNVAYHLCKHLHAEGAKLIVTDINKEAVQRAVEEFGASAVEPNEIYGVECDIYAPCALGATVNDETIPQLKAKVIAGSANNQLKEDRHGDIIHEMGIVYAPDYVINAGGVINVADELYGYNRERALKRVESIYDTIAKVIEISKRDGIATYVAADRLAEERIASLKNSRSTYLRNGHDIISRR
# B5: L42H: variant B. cereus leucine dehydrogenase (SEQ ID NO:1) with histidine at position 42 (protein, listed as Bacillus cereus)
# chain: MTLEIFEYLEKYDYEQVVFCQDKESGLKAIIAIHDTTLGPAHGGTRMWTYDSEEAAIEDALRLAKGMTYKNAAAGLNLGGAKTVIIGDPRKDKSEAMFRALGRYIQGLNGRYITAEDVGTTVDDMDIIHEETDFVTGISPSFGSSGNPSPVTAYGVYRGMKAAAKEAFGTDNLEGKVIAVQGVGNVAYHLCKHLHAEGAKLIVTDINKEAVQRAVEEFGASAVEPNEIYGVECDIYAPCALGATVNDETIPQLKAKVIAGSANNQLKEDRHGDIIHEMGIVYAPDYVINAGGVINVADELYGYNRERALKRVESIYDTIAKVIEISKRDGIATYVAADRLAEERIASLKNSRSTYLRNGHDIISRR
# B6: L42K: variant B. cereus leucine dehydrogenase (SEQ ID NO:1) with lysine at position 42 (protein, listed as Bacillus cereus)
# chain: MTLEIFEYLEKYDYEQVVFCQDKESGLKAIIAIHDTTLGPAKGGTRMWTYDSEEAAIEDALRLAKGMTYKNAAAGLNLGGAKTVIIGDPRKDKSEAMFRALGRYIQGLNGRYITAEDVGTTVDDMDIIHEETDFVTGISPSFGSSGNPSPVTAYGVYRGMKAAAKEAFGTDNLEGKVIAVQGVGNVAYHLCKHLHAEGAKLIVTDINKEAVQRAVEEFGASAVEPNEIYGVECDIYAPCALGATVNDETIPQLKAKVIAGSANNQLKEDRHGDIIHEMGIVYAPDYVINAGGVINVADELYGYNRERALKRVESIYDTIAKVIEISKRDGIATYVAADRLAEERIASLKNSRSTYLRNGHDIISRR
# B7: L42D: variant B. cereus leucine dehydrogenase (SEQ ID NO:1) with aspartic acid at position 42 (protein, listed as Bacillus cereus)
# chain: MTLEIFEYLEKYDYEQVVFCQDKESGLKAIIAIHDTTLGPADGGTRMWTYDSEEAAIEDALRLAKGMTYKNAAAGLNLGGAKTVIIGDPRKDKSEAMFRALGRYIQGLNGRYITAEDVGTTVDDMDIIHEETDFVTGISPSFGSSGNPSPVTAYGVYRGMKAAAKEAFGTDNLEGKVIAVQGVGNVAYHLCKHLHAEGAKLIVTDINKEAVQRAVEEFGASAVEPNEIYGVECDIYAPCALGATVNDETIPQLKAKVIAGSANNQLKEDRHGDIIHEMGIVYAPDYVINAGGVINVADELYGYNRERALKRVESIYDTIAKVIEISKRDGIATYVAADRLAEERIASLKNSRSTYLRNGHDIISRR
# B8: L42Y: variant B. cereus leucine dehydrogenase (SEQ ID NO:1) with tyrosine at position 42 (protein, listed as Bacillus cereus)
# chain: MTLEIFEYLEKYDYEQVVFCQDKESGLKAIIAIHDTTLGPAYGGTRMWTYDSEEAAIEDALRLAKGMTYKNAAAGLNLGGAKTVIIGDPRKDKSEAMFRALGRYIQGLNGRYITAEDVGTTVDDMDIIHEETDFVTGISPSFGSSGNPSPVTAYGVYRGMKAAAKEAFGTDNLEGKVIAVQGVGNVAYHLCKHLHAEGAKLIVTDINKEAVQRAVEEFGASAVEPNEIYGVECDIYAPCALGATVNDETIPQLKAKVIAGSANNQLKEDRHGDIIHEMGIVYAPDYVINAGGVINVADELYGYNRERALKRVESIYDTIAKVIEISKRDGIATYVAADRLAEERIASLKNSRSTYLRNGHDIISRR
# B9: L42S: variant B. cereus leucine dehydrogenase (SEQ ID NO:1) with serine at position 42 (protein, listed as Bacillus cereus)
# chain: MTLEIFEYLEKYDYEQVVFCQDKESGLKAIIAIHDTTLGPASGGTRMWTYDSEEAAIEDALRLAKGMTYKNAAAGLNLGGAKTVIIGDPRKDKSEAMFRALGRYIQGLNGRYITAEDVGTTVDDMDIIHEETDFVTGISPSFGSSGNPSPVTAYGVYRGMKAAAKEAFGTDNLEGKVIAVQGVGNVAYHLCKHLHAEGAKLIVTDINKEAVQRAVEEFGASAVEPNEIYGVECDIYAPCALGATVNDETIPQLKAKVIAGSANNQLKEDRHGDIIHEMGIVYAPDYVINAGGVINVADELYGYNRERALKRVESIYDTIAKVIEISKRDGIATYVAADRLAEERIASLKNSRSTYLRNGHDIISRR
# B10: L42T: variant B. cereus leucine dehydrogenase (SEQ ID NO:1) with threonine at position 42 (protein, listed as Bacillus cereus)
# chain: MTLEIFEYLEKYDYEQVVFCQDKESGLKAIIAIHDTTLGPATGGTRMWTYDSEEAAIEDALRLAKGMTYKNAAAGLNLGGAKTVIIGDPRKDKSEAMFRALGRYIQGLNGRYITAEDVGTTVDDMDIIHEETDFVTGISPSFGSSGNPSPVTAYGVYRGMKAAAKEAFGTDNLEGKVIAVQGVGNVAYHLCKHLHAEGAKLIVTDINKEAVQRAVEEFGASAVEPNEIYGVECDIYAPCALGATVNDETIPQLKAKVIAGSANNQLKEDRHGDIIHEMGIVYAPDYVINAGGVINVADELYGYNRERALKRVESIYDTIAKVIEISKRDGIATYVAADRLAEERIASLKNSRSTYLRNGHDIISRR
# Experiment: Reductive amination of 2-oxonon-8-enoic acid to (S)-LCAA by leucine dehydrogenase (NADH consumption at 340 nm, HPLC of aliquots)
# Type: biochemical
# Settings: reaction described in Example 1; conversion of 2-oxonon-8-enoic acid to (S)-LCAA
# Protocol: To produce (S)-LCAA from 2-oxonon-8-enoic acid, a reaction was performed under the following conditions. In 200 mL total volume and a buffered pH of 9.5, the aqueous reaction mixture contained 10 mM 2-oxonon-8-enoic acid, 12 mM glucose, 1 mM NAD^+, 50 mg of purified glucose dehydrogenase (GDH-105; Codexis, Redwood City, Calif.), 2 M NH4Cl/OH, and approximately 60 mL/L of purified leucine dehydrogenase cell-free extract. FIG. 2 depicts the reaction scheme for converting 2-oxonon-8-enoic acid to (S)-LCAA using leucine dehydrogenase. The mixture was incubated at 30° C. and with shaking at 150 rpm for four hours.
# Enzyme activity was measured spectrophotometrically by monitoring the consumption of NADH in the reductive amination at 340 nm. Activity was defined as the number of micromoles of NADH consumed in 1 minute (μmol min^−1). Aliquots of the reaction mixture were obtained periodically during the course of the reaction and subjected to analysis by high performance liquid chromatography (HPLC).
# To increase the affinity of LDH for the 2-oxonon-8-enoic acid substrate and, thus, enhance the enzyme's activity for producing (S)-LCAA, amino acid substitutions were made within the region of LDH that binds to the substrate. Specifically, amino acid substitutions were introduced at position 42 of B. cereus leucine dehydrogenase (SEQ ID NO:1) using standard mutagenesis techniques. Wild-type B. cereus LDH, along with 19 variants (one for each amino acid substitution at position 42) were expressed and isolated as described in Example 1. The enzymatic activity of the variant proteins was evaluated alongside wild-type B. cereus LDH in the reaction described in Example 1. […] While the disclosure is not bound by any particular theory or mechanism of action, the substitutions that increased the enzymatic activity of the LDH enzyme are believed to have increased the depth of the substrate binding pocket in LDH and thereby increased the affinity of LDH for the 2-oxonon-8-enoic acid substrate.
row,Molecule,increase in reaction rate relative to wild-type B. cereus LDH
1,B1,approximately 1×10^3
2,B2,approximately 1×10^3

# Same assay, conditions: reaction described in Example 1; conversion of 2-oxonon-8-enoic acid to (S)-LCAA; FIG. 5
row,Molecule,enzymatic activity (reaction rate) relative to wild-type B. cereus LDH
1,B3,significantly enhanced activity
2,B4,enhanced activity
3,B1,significantly enhanced activity
4,B5,reduced activity
5,B6,reduced activity
6,B7,reduced activity
7,B8,reduced activity
8,B9,enhanced activity
9,B2,significantly enhanced activity
10,B10,enhanced activity
